Measurements published in article PMC8810680 (Nature chemical biology, 2021).
“And” between values parts separate entries of the source, which are not always exact repeats. Identical values can stand only once. Blank lines part the entries; values can stand above or below the molecule they belong to.

Legend:
GudB6-GltA2B2 = GudB6-GltA2B2 (Bacillus subtilis, UniProt O34399+P39812); assay: cryo-EM structure, […] A; format: binding; conditions: co-purified
[1] = biological target: recombinant 6X His-tagged GudB (B. subtilis); assay: cryo-EM structure
recombinant 6X His-tagged GudB (B. subtilis), sequence (P50735 whole entry): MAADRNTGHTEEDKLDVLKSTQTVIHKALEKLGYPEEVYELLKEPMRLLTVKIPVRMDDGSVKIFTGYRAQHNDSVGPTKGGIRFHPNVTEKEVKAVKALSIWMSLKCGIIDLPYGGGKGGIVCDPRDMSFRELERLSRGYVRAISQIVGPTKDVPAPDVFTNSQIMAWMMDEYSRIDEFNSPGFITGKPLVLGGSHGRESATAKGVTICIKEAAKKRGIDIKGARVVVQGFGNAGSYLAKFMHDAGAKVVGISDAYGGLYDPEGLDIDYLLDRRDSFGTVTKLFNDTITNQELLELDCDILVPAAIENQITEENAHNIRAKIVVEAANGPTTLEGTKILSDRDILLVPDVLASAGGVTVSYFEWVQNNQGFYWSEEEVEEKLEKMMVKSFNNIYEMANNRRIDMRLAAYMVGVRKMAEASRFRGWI

[2] = biological target: glutamate dehydrogenase GudB (untagged, in B. subtilis NCIB 3610) (B. subtilis (endogenous in strain NCIB 3610)); assay: native MS
glutamate dehydrogenase GudB (untagged, in B. subtilis NCIB 3610) (B. subtilis (endogenous in strain NCIB 3610)), sequence (P50735 whole entry): as above

[3] = biological target: recombinant 6X His-tagged GudB (B. subtilis); assay: native MS
[4] = biological target: TwinStrep-tagged GltB (B. subtilis) (UniProt O34399); assay: mass photometry
TwinStrep-tagged GltB (B. subtilis), sequence (O34399 whole entry): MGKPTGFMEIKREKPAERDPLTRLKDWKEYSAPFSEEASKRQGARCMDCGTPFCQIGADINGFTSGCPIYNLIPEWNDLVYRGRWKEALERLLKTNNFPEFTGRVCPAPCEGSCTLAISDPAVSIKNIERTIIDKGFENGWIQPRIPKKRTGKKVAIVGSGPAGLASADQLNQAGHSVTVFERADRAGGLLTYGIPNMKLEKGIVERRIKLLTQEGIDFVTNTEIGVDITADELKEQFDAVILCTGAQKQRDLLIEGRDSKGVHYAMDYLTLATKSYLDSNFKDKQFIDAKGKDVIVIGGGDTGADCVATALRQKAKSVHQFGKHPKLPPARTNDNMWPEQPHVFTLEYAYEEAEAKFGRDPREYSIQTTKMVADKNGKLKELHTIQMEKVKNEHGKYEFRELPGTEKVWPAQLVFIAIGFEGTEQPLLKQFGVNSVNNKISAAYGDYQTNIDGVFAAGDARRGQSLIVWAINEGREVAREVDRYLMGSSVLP

[5] = biological target: glutamate dehydrogenase GudB (untagged, in B. subtilis NCIB 3610) (B. subtilis (endogenous in strain NCIB 3610)); assay: cryo-EM structure
[6] = biological target: recombinant Strep-tagged GudB (B. subtilis); assay: native MS

GudB6-GltA2B2, sequence (P39812 22-1520): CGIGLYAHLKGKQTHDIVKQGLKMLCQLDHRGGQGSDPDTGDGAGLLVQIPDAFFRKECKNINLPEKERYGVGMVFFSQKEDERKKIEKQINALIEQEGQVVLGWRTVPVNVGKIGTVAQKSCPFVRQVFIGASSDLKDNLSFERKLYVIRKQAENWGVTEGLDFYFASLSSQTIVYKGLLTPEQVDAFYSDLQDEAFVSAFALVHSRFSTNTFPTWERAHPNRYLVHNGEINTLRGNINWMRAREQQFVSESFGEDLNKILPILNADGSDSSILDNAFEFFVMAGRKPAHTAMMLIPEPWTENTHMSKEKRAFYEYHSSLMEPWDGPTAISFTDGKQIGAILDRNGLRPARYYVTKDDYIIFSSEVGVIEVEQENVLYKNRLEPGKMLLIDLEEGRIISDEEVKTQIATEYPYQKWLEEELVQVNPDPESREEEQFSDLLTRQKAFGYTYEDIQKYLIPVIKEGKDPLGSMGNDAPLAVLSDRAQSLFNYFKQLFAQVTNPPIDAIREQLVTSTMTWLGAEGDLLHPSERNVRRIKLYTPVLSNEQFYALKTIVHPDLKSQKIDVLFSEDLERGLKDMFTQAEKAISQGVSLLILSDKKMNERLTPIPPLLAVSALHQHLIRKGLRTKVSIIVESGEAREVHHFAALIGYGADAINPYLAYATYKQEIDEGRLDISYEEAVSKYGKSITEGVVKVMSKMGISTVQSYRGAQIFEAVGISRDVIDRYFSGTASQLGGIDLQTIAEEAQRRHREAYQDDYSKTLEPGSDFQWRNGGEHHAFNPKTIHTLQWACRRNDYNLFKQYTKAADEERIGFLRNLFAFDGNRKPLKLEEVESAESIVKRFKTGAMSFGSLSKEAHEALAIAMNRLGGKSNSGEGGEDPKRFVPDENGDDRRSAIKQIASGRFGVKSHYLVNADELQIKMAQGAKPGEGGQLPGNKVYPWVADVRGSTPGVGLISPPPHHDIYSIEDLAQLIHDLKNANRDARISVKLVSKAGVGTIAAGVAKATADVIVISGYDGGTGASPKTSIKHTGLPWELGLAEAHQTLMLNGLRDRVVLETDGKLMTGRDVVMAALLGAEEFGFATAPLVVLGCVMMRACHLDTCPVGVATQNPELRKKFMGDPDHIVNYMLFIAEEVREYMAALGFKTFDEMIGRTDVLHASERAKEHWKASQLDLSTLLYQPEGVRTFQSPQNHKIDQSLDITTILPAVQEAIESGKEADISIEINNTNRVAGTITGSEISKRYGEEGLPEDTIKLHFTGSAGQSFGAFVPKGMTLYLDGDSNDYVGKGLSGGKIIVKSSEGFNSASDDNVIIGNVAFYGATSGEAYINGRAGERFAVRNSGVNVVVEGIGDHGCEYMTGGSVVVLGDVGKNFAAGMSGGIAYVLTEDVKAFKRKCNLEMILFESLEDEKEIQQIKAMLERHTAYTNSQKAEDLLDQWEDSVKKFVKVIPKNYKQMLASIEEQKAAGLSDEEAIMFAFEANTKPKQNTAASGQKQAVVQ
GudB6-GltA2B2, sequence (O34399 whole entry): as the sequence (O34399 whole entry) above
GudB6-GltA2B2, sequence (A0A0C3GZC9 1-424 partner): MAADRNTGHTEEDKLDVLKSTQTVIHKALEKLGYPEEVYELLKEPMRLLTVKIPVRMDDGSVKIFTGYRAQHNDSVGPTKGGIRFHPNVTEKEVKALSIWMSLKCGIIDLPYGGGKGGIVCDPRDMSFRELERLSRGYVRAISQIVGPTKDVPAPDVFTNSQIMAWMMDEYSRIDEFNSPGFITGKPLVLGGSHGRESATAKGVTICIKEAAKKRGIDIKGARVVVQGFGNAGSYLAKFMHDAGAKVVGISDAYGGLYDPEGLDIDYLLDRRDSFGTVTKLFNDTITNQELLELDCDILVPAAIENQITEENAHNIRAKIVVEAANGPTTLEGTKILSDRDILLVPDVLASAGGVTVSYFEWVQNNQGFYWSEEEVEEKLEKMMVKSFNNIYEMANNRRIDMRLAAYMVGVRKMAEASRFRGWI
recombinant Strep-tagged GudB (enzyme), sequence (P50735 whole entry): as the sequence (P50735 whole entry) above
recombinant 6X His-tagged GudB (enzyme), sequence (P50735 whole entry): as above
glutamate dehydrogenase GudB (untagged, in B. subtilis NCIB 3610) (enzyme), sequence (P50735 whole entry): as above

cryo-EM structure, 2.4 A (GudB6-GltA2B2; site in GltA): a 3Fe-4S clusters and FMN in GltA
Molecule: Cc1cc2nc3c(=O)[nH]c(=O)nc-3n(C[C@H](O)[C@H](O)[C@H](O)COP(=O)(O)O)c2cc1C [FMN]

stoichiometry N (GltAB heterodimers per GudB hexamer) [2]: 6 | stoichiometry N (GltAB heterodimers per GudB hexamer) [3]: 3 and 6 | percent of counts as GltAB, no ligand [4]: 5 % of counts | percent of counts as GltAB, with AKG [4]: 12 % of counts | percent of counts as GltAB, with AKG and NADPH [4]: 16 % of counts | stoichiometry N (GltAB heterodimers per GudB hexamer) [5]: 6 | stoichiometry N (GltAB heterodimers per GudB hexamer) [1]: 2 to 4
Molecule: glutamate synthase subunit GltA (from UniProt P39812 1-1520) (enzyme)

stoichiometry N [5]: 6
Molecule: glutamate dehydrogenase GudB (untagged, in B. subtilis NCIB 3610) (enzyme)

The next lines start with the molecule.

Molecule: Cc1cc2nc3c(=O)[nH]c(=O)nc-3n(C[C@H](O)[C@H](O)[C@H](O)COP(=O)(O)OP(=O)(O)OC[C@H]3O[C@@H](n4cnc5c(N)ncnc54)[C@H](O)[C@@H]3O)c2cc1C [FAD]
cryo-EM structure, 2.4 A (GudB6-GltA2B2; listed among GltAB cofactors in the figure legend only): The co-factors in GltAB: FAD, two 4Fe-4S clusters (SF4), 3Fe-4S cluster (F3S) and FMN

Molecule: [S]12[Fe]3[S]4[Fe]1[S]1[Fe]2[S]3[Fe]41 [4Fe-4S cluster]
cryo-EM structure, 2.4 A (GudB6-GltA2B2; two clusters, site in GltB): unambiguous assignment of two 4Fe-4S clusters in GltB

Molecule: recombinant 6X His-tagged GudB (enzyme)
stoichiometry N [1]: 6

Molecule: recombinant Strep-tagged GudB (enzyme)
stoichiometry N [6]: 6
